This sample holds only a part of the variants without activity.
B1: TPR 5TU (parent)
chain: GGAUCUUCUCGAUCUAACAAAAAAGACAAAUCUGCCACAAAGCUUGAGAGCAUCUUCGGAUGCAGAGGCGGCAGCCUUCGGUGGCGCGAUAGCGCCAACGUUCUCAACUAUGACACGCAAAACGCGUGCUCCGUUGAAUGGAGUUUAUCAUG

Variants of: B1
Test: polymerase ribozyme fitness, log enrichment relative to wild type (log ratio); higher = more active; in vitro selection for triplet polymerase activity
Procedure, shortened: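 Mutant libraries of each subunit of a heterodimeric triplet polymerase ribozyme were built by PCR and transcribed. Each library went through one round of in vitro selection in triplicate: annealing with biotinylated primer, partner subunit and triplets, frozen incubation at −7 °C, gel excision of extended constructs, streptavidin-bead capture and RT-PCR. Input and output libraries were Illumina-sequenced; only genotypes with ≥10 input reads and ≥1 read per output were kept. Fitness is log2(genotype enrichment/wild-type enrichment), using inverse-variance-weighted replicate averages.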

Row | Variant | polymerase ribozyme fitness (log ratio)
1 | A49C C51G | -4.14
2 | A49C G62A G94C A122U C132G A142C | ≤ -4.2
3 | G48A U61A C105G | ≤ -4.2
4 | G48U C85U G140U | ≤ -4.2
5 | G48C A73U U135G | ≤ -4.2
6 | G48U C149G | ≤ -4.2
7 | A49C A52C C96A U102G U127C U148A | ≤ -4.2
8 | G48A C87U | -0.447
9 | G48C G70A C75G C87G C93G G140A G152A | -4.11
10 | G48C G84A A121G U134A G143A | -3.91
11 | G48C G94U C96U C118G A122U | -3.42
12 | A49C U53A G81C A98U G100A C103A | ≤ -4.2
13 | G48C U82G G128C U135A | -3.96
14 | G48A U101G | -2.26
15 | A49C U61G C99G G124A | ≤ -4.2
16 | A47U C51U A52C U53G U61A A64U C76U G83U U146C | ≤ -4.2
17 | G48C U145G | -0.0374
18 | A49C C57U | -3.72
19 | A47U U101G C116G | -2.38
20 | A49C G94C U104G | ≤ -4.2
21 | A49C C57U U101G | -2.69

Row | Variant | polymerase ribozyme fitness (log ratio)
22 | A49C G143A | -4.14
23 | A49C C79U U151G | ≤ -4.2
24 | A49G | -0.331
25 | A49C | -4.19
26 | G48C C76A U90G U130G | ≤ -4.2
27 | A49C U56A A60U | ≤ -4.2
28 | A49C A52G C85U U101G U127G U144G | ≤ -4.2
29 | A47U A60C C103G A107G | ≤ -4.2
30 | A47U G86U U134A | -3.84
31 | A49C G74C C87A C125U | ≤ -4.2
32 | A49C G81A G112A C114U G128A G133A | ≤ -4.2
33 | G48A G88A C105G A115U | -3.86
34 | G48A C57A U127A A142G G143A | ≤ -4.2
35 | A49C C75G G83U G141A U146A | ≤ -4.2
36 | G48A G133U | -3.81
37 | G48C C63U A142G | -1.03
38 | G48C G50A U55A | -3.03
39 | G48A C76G C87A U90A U146A | ≤ -4.2
40 | G48C U55A C103G | -0.533
41 | A49G A91G | -4.05
42 | G48U C96A | -0.685

Row | Variant | polymerase ribozyme fitness (log ratio)
43 | G48U C96G | -1.13
44 | A49C G88U C96G A115U U148G | ≤ -4.2
45 | G48C C96U A110G | ≤ -4.2
46 | A49C A52C A66G G86C A119G | ≤ -4.2
47 | G48A C54A U55G G58U A97G | -3.22
48 | A47U A49G G141A U145A | ≤ -4.2
49 | A47U C51A G58A G80A G83A C103U | ≤ -4.2
50 | G48U U55A C99U | -2.23
51 | G48A G67A U77C A97U U145G A150U | ≤ -4.2
52 | A49G A52G U55A G67A A107U G133C A137G U139C | ≤ -4.2
53 | A49C G50C G81C A110U | ≤ -4.2
54 | A47U G48C | -1.39
55 | A49G A60U | -1.62
56 | G48A U61A A91C C131A U139C | ≤ -4.2
57 | G48U G59A C93U | -1.39
58 | G48A C85A C123U U134C | -1.46
59 | A49C U56A G88U A122C C125U | ≤ -4.2
60 | G48A A107G | -4.08
61 | A49C C93A C103G G117U C149G | ≤ -4.2
62 | A49C G68A U102G A107G | ≤ -4.2
63 | A49C U53A G88C G141C | ≤ -4.2

Row | Variant | polymerase ribozyme fitness (log ratio)
64 | A47U G80A A91C | ≤ -4.2
65 | A49G A52C | -1.27
66 | A49C C76A | ≤ -4.2
67 | A49C C51U A52C G62A G70A G84A A106G A115G | ≤ -4.2
68 | G48A G80C G94A C96U C99G | -3.97
69 | A49C C51U G133A G143U | ≤ -4.2
70 | A49C G81U G84U C125G G141C A150U | ≤ -4.2
71 | A49C G62U A107U G152A | ≤ -4.2
72 | A49C C51U A73G | ≤ -4.2
73 | A49C C54U | ≤ -4.2
74 | A49C A52C A91U U130A U134A U135C A142G | ≤ -4.2
75 | G48C C85A A142U | ≤ -4.2
76 | G48C A49G A113G | ≤ -4.2
77 | G48U U55A C96G A115U | -4.16
78 | A47U U56A C95U A119U U135A | -2.15
79 | G48C U55A A122U | 0.121
80 | G48C G86U C95A C96G G117C G136A | ≤ -4.2
81 | G48A U135A | -0.864
82 | G48C U53A G74C C85U C99U A119G A120G | ≤ -4.2
83 | G48A A49G C54U U90G G92U C99U A121C U151A | ≤ -4.2
